Substitutions are numbered along the chain they refer to.

Experiment [1] has as its target human small ubiquitin-like modifier 1 (human) (UniProt P63165). Kind of experiment: ratio of the apparent affinity for hSUMO1 to that for ySUMO in the titration phage ELISA of FIGS. 25A and 26A; group High Specificity (>100).
For experiment [2] the target is unchanged. Description: SPR (monobody on the chip via His-tag, target flowed); estimated Kd [Continued].
Experiment [3] shares this target. Kind of experiment: ratio of the apparent affinity for hSUMO1 to that for ySUMO in the titration phage ELISA of FIGS. 25A and 26A; group Low Specificity (0-10).
Experiment [4] has the same target. Description: SPR (Biacore 2000), monobody immobilised via His-tag on NTA surface, hSUMO1 flowed over it.
For experiment [5] the target is unchanged. Description: ratio of the apparent affinity for hSUMO1 to that for ySUMO in the titration phage ELISA of FIGS. 25A and 26A; group Moderate Specificity (10-100).
Experiment [6] has the same target. Description: SPR.

B1: hS1MB-18 (designed binder)
chain: VSSVPTKLEVVAATPTSLLISWDASSSSVSYYEITYGETGGNSPVQEFTVPGSSSTATISGLSPGVDYTITVFAYDSVEDIYVSYSPSSINYRT
For the molecule B1, the Specificity Factor in experiment [1] was above 100.

B2: SEQ ID NO 87 (designed binder)
chain: VSSVPTKLEVVAATPTSLLISWDASSSSVSHYHITYGETGGNSPVQEFTVPGSSSTATISGLSPGVDYTITVYAFYSDDDLYFAFSPSSINYRT
In the case of B2, the dissociation constant (Kd) in experiment [2] was 652 nM.

B3: hS1MB-17 (designed binder)
chain: B1 chain with F73S, D76N, V78Y, E79D, V83Y, S84A, Y85V
Take B3: the Specificity Factor in experiment [1] was above 100.

B4: hS1MB-21 (designed binder)
chain: B2 chain with H33G, F75Y, D78Y, D79H, L81I, Y82F, F83Y, F85L
Regarding B4, the Specificity Factor in experiment [3] came to 0.7.

B5: SEQ ID NO 88 (designed binder)
chain: B2 chain with H33G, F75Y, Y76H, D78Y, L81I, F83Y, F85L
As for B5, the dissociation constant (Kd) in experiment [2] was 290 nM.

B6: hS1MB-3 (designed binder)
chain: B2 chain with H33A, F75Y, Y76H, D78Y, L81I, Y82F, F83L, F85D
The molecule B6 returned a Kd in experiment [4] of 519 nM. For the same molecule, in experiment [5], the Specificity Factor is 12.3.

B7: SEQ ID NO 90 (designed binder)
chain: B2 chain with H33E, F75Y, D78H, D79E, L81I, Y82F, F83Y, F85V
For the molecule B7, the Kd in experiment [2] was 145 nM.

B8: SEQ ID NO 96 (designed binder)
chain: B2 chain with H33D, Y73H, F75Y, D78Y, L81I, F83V, F85I
For the molecule B8, the Kd in experiment [2] was 2200 nM.

B9: hS1MB-13 (designed binder)
chain: B2 chain with H31Y, H33A, F75Y, Y76H, D78Y, L81I
As for B9, in experiment [3], the Specificity Factor amounted to 1.4.

B10: ySMB-1 (designed binder)
chain: B1 chain with E33R, F73Y, D76Y, V78Y, E79Y, I81L, V83Y
Turning to B10, in experiment [6], the Kd was 54000 nM and the fold discrimination in affinity (ySUMO over hSUMOs) was above 600 fold.

B11: SEQ ID NO 95 (designed binder)
chain: B2 chain with H33A, Y73F, F75Y, D78Y, L81I, F83Y, F85Y
On to B11, for which the Kd in experiment [2] was 738 nM.

B12: SEQ ID NO 92 (designed binder)
chain: B1 chain with Y31H, F73T, V78Y, E79Y, V83I, S84A
On to B12, for which, in experiment [2], the dissociation constant (Kd) was 2800 nM.

B13: hS1MB-12 (designed binder)
chain: B2 chain with H31Y, H33E, Y73F, F75Y, Y76H, F83Y
Turning to B13, the Specificity Factor in experiment [3] came to 4.4.

B14: hS1MB-15 (designed binder)
chain: B2 chain with H31Y, H33D, F75Y, D78Y, L81I, F85D
With B14, the Specificity Factor in experiment [3] was determined as 2.9.

B15: hS1MB-16 (designed binder)
chain: B2 chain with H33D, F75Y, Y76N, D78H, L81I, Y82F, F83I, F85Y
As for B15, in experiment [1], the Specificity Factor was above 100.

B16: hS1MB-11 (designed binder)
chain: B2 chain with H31N, H33A, F75Y, D78Y, L81I, Y82F, F83V, F85D
Regarding B16, the Specificity Factor in experiment [5] came to 13.1.

B17: hS1MB-22 (designed binder)
chain: B2 chain with H33A, D78Y, D79Y, L81I, Y82F, F83Y, A84S, F85D
Regarding B17, the Specificity Factor in experiment [3] came out at 0.6.

B18: hS1MB-23 (designed binder)
chain: B2 chain with H33E, F75Y, D78H, L81I, Y82F, F83Y
As for B18, the Specificity Factor in experiment [5] stood at 52.5.

B19: hS1MB-19 (designed binder)
chain: B2 chain with H33G, F75Y, D78Y, L81I, Y82F, F83V, F85V
As for B19, the Specificity Factor in experiment [3] is 8.

B20: hS1MB-14 (designed binder)
chain: B2 chain with F75Y, D78Y, D79N, L81I, Y82F, F85D
B20: the Specificity Factor in experiment [3] was 2.6.

B21: SEQ ID NO 94 (designed binder)
chain: B2 chain with H33A, F75Y, D78Y, F83V, A84S, F85D
For B21, the dissociation constant (Kd) in experiment [2] was 3600 nM.

B22: SEQ ID NO 89 (designed binder)
chain: B2 chain with H33A, F75Y, Y76H, D78Y, L81I, Y82F, F83L, F85D
Consider B22, for which the Kd in experiment [2] was 519 nM.

B23: hS1MB-7 (designed binder)
chain: B1 chain with F73I, Y75F, D76Y, V78H, E79D, V83I, Y85D
B23: the Kd in experiment [4] came to 2500 nM. Besides, the Specificity Factor in experiment [1] is above 100.

B24: SEQ ID NO 93 (designed binder)
chain: B1 chain with F73I, Y75F, D76Y, V78H, E79D, V83I, Y85D
As to B24, the Kd in experiment [2] was 2500 nM.

B25: hS1MB-20 (designed binder)
chain: B1 chain with Y31H, E33S, F73Y, V78I, V83I, S84A, Y85D
Regarding B25, the Specificity Factor in experiment [1] was above 100.

B26: SEQ ID NO 91 (designed binder)
chain: B1 chain with Y31H, F73A, D76H, V78Y, E79H, Y82F, V83Y, S84A, Y85V
In the case of B26, the Kd in experiment [2] is 284 nM.

The record behind these values is patent publication US20140057807A1.
